Assay results: publication PMC12065904, “Mapping the interaction surface between CaVβ and actin and its role in calcium channel clearance” (Nature Communications, 2025)

Target: rabbit skeletal muscle actin, polymerized in vitro (F-actin) (rabbit, UniProt P68135 1-377)
Experiment: co-sedimentation; F-actin cosedimentation: CaVβ proteins incubated with polymerized actin in polymerization buffer (0.2 mM CaCl2, 50 mM KCl, 2 mM MgCl2, 1 mM ATP, 5 mM HEPES pH 8.0), 25 µM phalloidin; 150,000 × g, 20 min, 4 °C; densitometry of pellet over total; also at 30–150 mM NaCl and after 30 or 90 min of incubation
Details: both partners purified

B1: CaVβ2-core WT (core region of rat CaVβ2, residues 23–422) (domain or fragment)
chain: not shown
notes: rat CaVβ2 (voltage-gated calcium channel β2 subunit), UniProtKB Q8VGC3-2, core region (SH3 and GK domains), residues 23–422; Expressed from pRSETB
  bound fraction: 0.24 ± 0.03 fraction
